Target: β-clamp of the Escherichia coli replisome (E. coli) (UniProt P0A988)
UniProt P0A988, sequence (P0A988 whole entry): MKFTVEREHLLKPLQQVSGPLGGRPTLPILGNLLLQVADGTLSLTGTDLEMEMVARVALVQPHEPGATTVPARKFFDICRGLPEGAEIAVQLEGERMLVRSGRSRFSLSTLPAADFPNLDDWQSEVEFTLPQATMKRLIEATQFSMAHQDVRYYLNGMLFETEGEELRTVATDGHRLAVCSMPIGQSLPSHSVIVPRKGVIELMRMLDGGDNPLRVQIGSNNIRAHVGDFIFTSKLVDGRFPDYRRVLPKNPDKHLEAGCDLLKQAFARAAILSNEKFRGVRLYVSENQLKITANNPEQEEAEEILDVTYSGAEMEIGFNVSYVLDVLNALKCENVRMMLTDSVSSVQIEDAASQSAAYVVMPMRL

## DNA polymerase I (from UniProt P00582 1-928) (enzyme)
  rate of cleavage of a 10 nucleotide 5' flap by Pol I, with template-loaded β-clamp against without (denaturing gel): 2.5 fold
